Experimental data as given in the DeepSol protein solubility set.

assay: soluble on expression in E. coli; label from the status in PepcDB or PDB records

Row | Sequence | soluble on expression in E. coli
1 | GSHMASTPDKFNDGNLNIAYAKPTTQSSVDYNGDPNRAVDGNRNGNFNSGSVTHTRADNPSWWEVDLKKMDKVGLVKIYNRTDAETQRLSNFDVILYDNNRNEVAKKHVNNLSGESVSLDFKEKGARYIKVKLLTSGVPLSLAEVEVFRES | soluble
2 | MEIIIVGGFLGSGKTTTLNHLITDALDHNLKTALIINEFGKMSVDSQLIHPTIPISEIVEGCICCAMKSNVSQQLHEIYLEHQPDLVFIECSGIAEPLAVVDACLTPVLAPITTIRSMLGIIDAKLYEKIETYPRDIQALFYEQLSYCSTLFVNKIDIADFNQVARLLRHLEVINRDANIQVGQWGELALNTLLNVKHLDAKQRGTLHHAINHQLIDTPRSQTKADFIERLTQLPQQVYRVKGFVRFTDSKLIHLVQYAEGEIELTPIQFKSDVPLYLVVIGKHLDAIELDLLEHHHHHH | not soluble
3 | GPGSMFYPNSPQTSPQLTQIPYGQQYAMMQRQIQQPYHPFATTEPQARLYPYHYQGPIQQEQGGFITQQSTAASPQYVQMRVTPVDQSIMSGYPNQTANGSSSSSFNYNIHPQQQQQQQQQQQLRHHAMPVGSVPLQDDRYRKQLIVNYLAPDVTSTDLHELFSRFGELDGARIIYDKQTNMSKGYGFVYFCHAEDAKEAVERMSGYEFHGKWLKVGYSTNPLNIVPSNSSPYVHAGSRGAAG | not soluble
4 | MSLANLKVNLYGMEFLNPIMTAAGPGAKDGALCQEAAKGGAGAICTKTISVLPADVPRPCMAKTNSGFLNTELWSELPKEQWIEEEYKKVKETGLPVIVSMGYSAEQIAEVAPLVKPYADAVELSTHYVGTDVAPIVNALKAAKAVLDVPVFMKMSPHTDIQTIAKAVEEAGADGLVMINSFGPCMAIDVNTGYPIMGSKAGYGWLSGAPIRPLAIRCIYEASQVVNIPIIGVGGITCGKDVAEMMMAGASAVQVCTEAILKGPSIYGKIAKELNEFLDENGYADVNEIKGLTHKKMAARGFRTHSVAPVVDEGHHHHHH | soluble
5 | DGTSQLAELVDAAAERLEVADPVAAFKWRAQLPIEDSGRVEQQLAKLGEDARSQHIDPDYVTRVFDDQIRATEAIEYSRFSDWKLNPASAPPEPPDLSASRSAIDSLNNRMLSQIWSHWSLLSAPSCAAQLDRAKRDIVRSRHLDSLYQRALTTATQSYCQALPPA | soluble
6 | MGARKASAGASRAATAGVRISHPQRLIDPSIQASKLELAEFHARYADLLLRDLRERPVSLVRGPDGIGGELFFQKHAARLKIPGIVQLDPALDPGHPPLLQIRSAEALVGAVQMGSIEFHTWNASLANLERPDRFVLDLDPDPALPWKRMLEATQLSLTLLDELGLRAFLKTSGGKGMHLLVPLERRHGWDEVKDFAQAISQHLARLMPERFSAVSGPRNRVGKIFVDYLRNSRGASTVAAYSVRAREGLPVSVPVFREELDSLQGANQWNLRSLPQRLDELAGDDPWADYAGTRQRISAAMRRQLGRG | soluble
7 | MSLRHGIQAVFLIEKISKCNSLESLSLLVKERQAVFEAMIESHLPANVIGQVLMMIYDAFTCRLIKLAERNVGLPPCNYAWLAAGSHARGEVHLGSDQDNALVLDDSATESDRIYFRHFAMYICKGLAECGYPLCNGRFMAATPKWNQPLFIWKQLYRKWANNPEYNMLLNLNVFLEVRFISGDRSLFDELNSERERCTKNNPHLIAALVRNLISHRPPLGIFNNLVLENNGHNEKSLNIKKSAIGLLVDIARIYALHKGGGMLSTEERFDFAYDRGLINSTSHQDLIGTYRYVTQLRYSHQLQCLQGGKPVTNAIFPEHFGSFERQHLKDAFRIIRGYQDTLKMKFGSEGHHHHHH | soluble
8 | SNAESAAPQVHLSILATTDIHANMMDYDYYSDKETADFGLARTAQLIQKHREQNPNTLLVDNGDLIQGNPLGEYAVKYQKDDIISGTKTHPIISVMNALKYDAGTLGNHEFNYGLDFLDGTIKGADFPIVNANVKTTSGENRYTPYVINEKTLIDENGNEQKVKVGYIGFVPPQIMTWDKKNLEGQVQVQDIVESANETIPKMKAEGADVIIALAHTGIEKQAQSSGAENAVFDLATKTKGIDAIISGHQHGLFPSAEYAGVAQFNVEKGTINGIPVVMPSSWGKYLGVIDLKLEKADGSWKVADSKGSIESIAGNVTSRNETVTNTIQQTHQNTLEYVRK | soluble
9 | MTDVYIAAGLRTPIGLVGKQFAKEQPEILGAKLINALQNKYPVPIDQVICGNTVGTGGNIGRLMTLYSHLGESVSALTVDMQCASAGAALSVGYAKIKAGMASNLLVGGIESSSLQPESVYASADWRQGAYKVAQFSPDSISPFAMIEGAERVAREHGFTKEYLNHWTLRSHQKASYCQEQALLADLILDLSGASDQGIRPRLSSKVLSKVPPILGEGHVISAANACLTHDAAAFLQLSSQPSAFKLIDVVEVAGDPQRSPLMVIKASQVLLEKHGLGMADMTAIEWNEAFAVIDGLFETHYPDLLDRYNIFGGALAYGHPYGASAAIIILHLMRALEIKNGRYGIAAIAAAGGQGFAVLLKYHKEFSHADKARILGKAMPK | not soluble
10 | MLNSLEAYNENKFIVFGINDNKEIIGLEKNMFDDAHYQNIIDEYINPRPKIETGQIEYNDEKIGYIAINSNNLETPYELKKELRIKKSKSSLSKGLSFIRKGSTNTPIIQEEREKLILKKTEKNPNNKNLFTALNQKNHAIEEIYYKDNKKSGRKKLDPSNNNGRFTIGELSYEFEMILDVASNEIARIMKTDTIKVARIKNYKDNDIYYELQENLKSPNEVVKKLDTSSRSRDFTLKDLGILINKHGRIAEIFFKEIKSESHGSEENIVEIEWNIPDTKLEHHHHHH | not soluble
11 | MAHHHHHHMGLEDIDECLPPSLGGKGQVLKGRPVNNGDGTSGSCAKVNFGELFGFPVASSGGAVMPSASAGVGSVQAGSKTECQEPEEQWIWVSAEGQKSEASPVDNMAGRSNDPLDAFFTSHTPSLQPSSSMKREEKPFTDLLDFSKPAERVRYSDEHSLLEAFENQSKGRRADVRDDPSLEDLSHGSSNNAVRARLLKIMNYYDILGVTRDATEEQIRQRYKQKALELHPDRVGRDQTPEEVELFKVMTKANEVLCDPEERAKYDEELRCSNVGADDEAQWLFHLHLR | soluble
12 | MGSSHHHHHHGKTIFVIVPTNEEQVAFLEALAKQDELNFDWQNPPTEPGQPVVILIPSDMVEWFLEMLKAKGIPFTVYVEEGGSENLYFQGGGGGGVRYVQRPWFSPLGFMASSPTAYAPMMTCIALALIFPFRYQISEYFERQRDGVHVELRRKAVKYYAEMERMHRRQALVNLESIQDDNAPHRLSAVLSVESIQAGHLDQEYNYWYAHERDAIRAEKLMMEIRELKAKMPADSA | not soluble
13 | MSRNRVMSIDFQQLPHAGIRSLIPYVPGKSIEELAKEKGITDIIKLASNENPLGCSPLALSVIQTMSSHYIATYPSPWNHPLMSKLASYLKVKPEQLFLSNGSDYLFNILLNCFALHTDRHILTHDYAFSTYAIQANSLQIPINSVPIGHNWEVNITDIVNACNQQTGIIFIANPNNPTGVLIQQEEIKYLLEQIPKSTLLVLDEAYYEFAASQLTVNSLDWLEEHPNLVVTRTFSKIYGMAGLRLGYAIANPSIINILKRVQLPFIVNQVALAAAYAAIDDDDFIQSSLKMNNEGMLQLQAGFNELNIKYLPSSCNFLTFDCEEDSMALYNYLLDNGIIVRPLHAYKMNNFIRVTIGTKEQNSRFLTALKNFYL | not soluble
14 | MAHHHHHHMSEAALKREIALQEASDVVDNKSRVLPKSPADTRERTHEVVAATEPFEHPISLRSKVSAYVTLALLFLFARLRESYRQFFPNDESHVRPGYAPIVKDFDHYWNRRFYRRVRDCFMRPIDSRPSRVIGVMERVSKDNNQTFEYSGRIVPAVNMGSYNYLGFAEDTQSITHEVLDSIDDYGLASCSAPQGLGQSALVSRLEHEFAEFLGKEDAIVCGMGFATNFRGLPTLFGKETLVLSDSLNHSSLVNGVRSSGAKVKVFQHNHFGQVEKCLREGVVLGQDPCGEYKPYKRIVIIIEGIYSMEGEIVNLKKFVELKKKYKALLFVDEAHSIGAIGRTGRGVCEHTGVDPKDVDVLMGTFTKSFGSIGGYIAADKTLVRYLRQHSSIALHCDPLAPPCAQQVLSVLHVLLGKDGTDLGEKRIRQLKDNSSFFRRGLMDLGLVVLGDDSSPVVPVMCYSIGRLSALSRLCLERGVAIVIVGYPATPLLQGRVRFCVSACHTREDLQRTLDVIRELKGYVCMEDSTNPLR | not soluble
15 | MGSDKIHHHHHHMTTQAKQPSRFDRNPLASENERLILDIVRRHGPIARSVITTHTNLTQQSVHRLIEGLIERGLLRTGAPLKGARGQPSPTIELAVESVASLGISINTDSAIICLADFSCGVIAQKKLELLPLSREATLVSLSRTLDEMLEAHNLPRDRLLGLGFAMSGFSVADDRIFNAPEPLQDWSLMDLRPILEQTFQLPVWQENNATTGAIGESLQGVGRWCQTFAYLSFNYGFGGGLILNGQPFYGFHGNAAELSGIYDPTEAPRRPALQYLLRSLQDHGIEIDSVDTLYRTFDPGWPGVEAWLEATMPQVERLVAVLIAVIDPQAIVFGGQLPPALGAMMIERCPMPSQRVHRYGVGPKEARLVLSEVKGDAAVIGAALLPLKMRYFI | not soluble
16 | MGSDKIHHHHHHMENQLLTLKNNELTVQINPKGAELTHVIENKNKFDFIWNGSEWPKHAPILFPAIGRSTDDEYLLNQKIYPMQQHGFASDYFFEIIDQKEDQISLSLKDNEETYQSYPFQFELKVTYQLVSKKLKIQFEIKNLSVKKLTFALGFHPAFNLSANFEDYQISFETKDKTLKQFEIVKNPFPYRSGKIIEINKAVSNFPLEREFFEKGLVIFDNKIEEVKLFSQETDYQMTMKMADFPYLCLWTKEDENLSYLCIEPFQGLPDILNQKQELLQKEGNISLKSNESKTYEVELTFNSNKGES | not soluble
17 | MLYNMDERFEIKDIVAREVIDSRGNPTVEVEVITKGNGYGSAIVPSGASTGTHEALELRDKEKRFGGKGVLMAVENVNSIIRPEILGYDARMQREIDTIMIELDGTPNKSRLGANAILAVSLAVAKAAAATAKIPLYKYLGGFNSYVMPVPMMNVINGGKHAGNDLDLQEFMIMPVGATSISEAVRMGSEVYHVLKNVILEKYGKNAVNVGDEGGFAPPLKTSREALDLLTESVKKAGYEDEVVFALDAAASEFYKDGYYYVEGKKLTREELLDYYKALVDEYPIVSIEDPFHEEDFEGFAMITKELDIQIVGDDLFVTNVERLRKGIEMKAANALLLKVNQIGTLSEAVDAAQLAFRNGYGVVVSHRSGETEDTTIADLSVALNSGQIKTGAPARGERTAKYNQLIRIEQELGLSKYAGRNFRCPF | soluble
18 | MSLGIVIYGTRVIYPAEKKEVVVQLVNQGEQASLVQSWIDDGNTSLPPEKIQVPFMLTPPVARVAAESGQQIKIKKMPNSLPDNKESLFYLNVLDIPPNSQENAGKNVLKFAMQNRIKLIWRPSRIAAVTKDSFQRIGLFRSNKAVIMKNDTANWITVTDVKAGNTKINDQTIMLPPLSTQNINMKYASTSQYEVTIIDDNGNYISSKMNVKEGHHHHHH | soluble
19 | MGSDKIHHHHHHMKKFLCFIMSVGLILSLVGCGKSGKTNIKVPAKSIDGKDSSISLDIMATNKFLYNVIKDISGNRHNVQFMFKNDIDVKQFDYTSDSINNVSKYNIFMYLGADFEPWASDFIGKLDKNSIATVDMSRGTKILNLDDKVQYGNITVEKNSYYWTDLNNYKTMLVNIKNSLEEKDPKSRDLYEKNFAAYIKKVNDCEKEFKGINDKLKGYTFVTNSSNFDYFFNYAGLDSVKVSEDELSKPDTSKELNDKLKDKEKICYIYSDDGSVQSNNAVIQKYKMKTLKFVTYDENSDYICIIKDNIKSMKELIK | not soluble
